{"source": "the DeepSol protein solubility set"}
{"assay": "soluble on expression in E. coli; label from the status in PepcDB or PDB records"}
{"sequence": "SVKRLFKVRSDLDFAEQLWCKMSSSVISYQDLVKCFTLIIQSLQRGDIQPWLHSGSNSLLSKLIHQSYHGTMDTVSLSGTIPVQMLLEIGLDKLKKDYISFFIGQELASLNHLEYFIAPSVDIQEQVYRVQKLHHILEILVSCMPFIKSQHELLFSLTQICIKYYKQNPLDEQHIFQLPVRPTAVKNLYQSEKPQKWRVEIYSGQKKIKTVWQLSDSSPIDHLNFHKPDFSELTLNGSLEERIFFTNMVTCSQVHFK", "soluble on expression in E. coli": "soluble"}
{"sequence": "MMKNFVCTTCGVQYAASVEEPVSCHICDEERQYVNPKGQSWTTLENLQTDDTYKNEIIKEENGLYSITTKPGFAIGQTAFVVKTESYRLLWDCITYLDETTITKIKELGGLDAIALSHPHYYSTQVEWAETFDVPIYIHEDDKEWVMRPSSRIIYWSGESLQLADGITVHRLGGHFSGGSVLHWEEGNDGKGILLTGDIIQVVADERWVSFMYSYPNLIPLPARKVEEMVNRVKPLQFNRLYNAFHRVVKENANEAVERSAERYIKAIEGKLFHT", "soluble on expression in E. coli": "not soluble"}
{"sequence": "GQSMTQQLRVLKSGVDIVVGTPGRVIDHLERKSLNLEHIAYFVLDEADEMLNMGFIDDIKEILKSTGPNKRMLFFSATMPKAILGIVKKHMQNYEHITIEKEELTETLTEQIYFEVKESDKFEALCRIIDIEDEFYGLVFCRTKTDTSQLAQKLSDRGYLADALHGDLSQQEREKILNKFRKQKINILAATDVAARGIDIMDLTHVINYALPQDPESYVHRIGRTGRAGKQGTAITFVTSTEFRRLTYIKKTSKSEMKKGHIPEIKDVIKAKRARVRTELEETIKTEEYGDCLEMSQKLLEEYPAEKILAALLKFTFKDKFDESMYTEISSGSSYVDRKGKSRLFIAMGKADGMTPDKLSYFIQEELGDGELKVRDAEIFPHFSFVTLPFAQAETLIEIFKNKRRGSKPFVELAQKSRGRSSKDSGETRSDNRGTSRGNSRNGESRGDSRGESRGTKSTNYSRSTRSTRSTKK", "soluble on expression in E. coli": "not soluble"}
{"sequence": "PVAVYTTHDPQALKITGNRLSCEWLRIPPGTNLSKSAHEGERPEFFKLFKDGVEIPPEKMPSQLSAAGIEVNDCELDIVSADGRIRHVLGNARPLRDEN", "soluble on expression in E. coli": "not soluble"}
{"sequence": "MKKCNIMIVGVGGQGTLLASRIIGNVALKQNYDVKVSEVHGMSQRGGSVVTYVKIGDKVYSPIIEKGEADIIMAFEMLEALRWAEYLKEDGKLLVNEQKINPMPVIIGKEKYPENIMQMLKENYKNVISLDALKIARECKNIKAVNTVLIGLLAKVLEIDKEVWIESIKEVVPSKAVDVNLKAFEEGYSRG", "soluble on expression in E. coli": "soluble"}
{"sequence": "VEVESFLVHPGDLLQLRCRLRDDVQSINWLRDGVQLAESNRTRITGEEVEVQDSVPADSGLYACVTSSPSGSDTTYFSVNVSDALP", "soluble on expression in E. coli": "soluble"}
{"sequence": "MVIHQIKILQSVATSIVEGGRGVTGTPFPNQPDKPLKLYEFEGSPFSRRVREVLTLLNLDVEIYPCPKGGQKYRAIVKEKGGKLQFPFLIDENTGDQLYESQKIIHHLFKHYGKTGHTPEKYQHYPKIPVIGLIATLLNAARGVWVNKKIIHRAAPEQLLELWSFEASPYSRVVRDILTELEIPYVLHNVSKERWQDMGPAILRLKPGPYIPLAGGKRDKMLPMMQGKMQVPYLVDPNTGIHLFESAQIVAYLKKQYGEV", "soluble on expression in E. coli": "not soluble"}
{"sequence": "MGSDKIHHHHHHMLKHLDNITDCRSHINQEHDVIDICFLVLSAVISGAQSWSACHEFGTLELEWLRKYRPFTNGIPSQQSIGRIFRGVSKQSLLDALMSWVNEYRVNTGQSSIAIDGKVLKGAKASASSAALHMVTAYDTGSGLVFSAKSGASKKSELKLVQELLTCLDLKSELLTFDALHCQSQTLDYIAKEGGDCILQVKGNQPKLYEALQAQFTDYIENNPDAECFTETNKGHGRVEKRITFQCPLNLPAEIKMKWSQLKTLIAVERHRKVGNKTSIDTHFYVSSAVLTSEAFGRAIRAHWQTENNQHWLLDKLFQEDKQKMYDEDGASILAILRRWALNLVKLHPAKTSQTQKFNRACWSDDFREEIIFGTGQKV", "soluble on expression in E. coli": "not soluble"}
{"sequence": "MSLLPTILTVDDEEMIRDLMVTALSREGYRCFQAGSAEEARSVLQNNKIDLAILDIMMPGLSGDDFLKELKVLSPETVVLMVTALSDTETAMKCIHLGAYDYILKPFDIDRVLLTIHNALEKQRLLAENREYQANLEKKVDEQTRQIRMAMEDLNLAYNHTLTALVRALDAREKETGSHSERVMTYTLLLGEAMGVPEKDLSVMARGALLHDIGKVGISDNILLKPAKLDEREWMEMMRHPQLGYEILSGIKFLKGPAEIVFAHHERFDGSGYPKGLSRSGIPLGARIFSLVDTLDAMTSDRPYRKALPFEAVTSEVRRCRGTQFDPEIVDIFLSIPRERWEVVGKRHFIVGEGHHHHHH", "soluble on expression in E. coli": "not soluble"}
{"sequence": "KDDKVASATDVQFETPLKIVEYPDPILRAKNKRIDIFDENLKNLVDAMFDVMYKTDGIGLSAPQVGLNVQLMVFNPAGEPGEGKEIVLVNPKIKKYSDKLVPFDEGCLSFPGIYAEVVRPQSVKIDARDITGERFSISLSRLPARIFQHEYDHLEGVLFFDRMTDQVLDSIREELEALEKKYEEKTGLPSPER", "soluble on expression in E. coli": "soluble"}
{"sequence": "MGSDKIHHHHHHMKQVSIIGAGIGGLTAAVRLQKLGYNVTIYEQNAQPGGKMNQIVSQGFTFDVGPTIVMMKDIYEEVFRFCGVDPHNYLPFEEVQPLMHLVFGDQSSLDLSRDLPTLIAEINRIAPDDVNGMLNFLADIYHRYTIAKPNFLERSFRNWRDFYNLPALYAGLQLRTFNNAYKNIAKFIKNENLRNSLAFQTLYIGISPYQGPSLYNIIPMIELFYGVYFLKGGMYTVVNSLVKLFKEQGGTLKLATPVQEIIIKDKVAVGIRVNNHPIHSDYVLCNADFPTAMTTLIPNEQDRGQYTDQKIAKMDYSCSCLVLYLGLDKKYPTEALHTIHFAQDFSKNVADLFDNGKLPEDPSYYVYVPSKMDPSLAPENSEALYVLVPVPELSKFNDWSPTTLKNYRQLIINKLRQTATFSDIEQHIVVEKQFTPVDFKEQFGAYNGATFGLRPTLKQSNYYRPHNKFDYADHLYFCGSSTHPGAGVPIVMQSAKLAVEELIKDDQTNA", "soluble on expression in E. coli": "not soluble"}
{"sequence": "MIPGGNTLKETAVVPAATGYDRIAFIYDIIAGIASFDQINKSQLAFLSSIPTQSTCLILGGGTGYFLQKLLEQNATIQVTYVDASQKMIEFAQKRIAEKKPYDAHRVTFVCKQVNVFEFDTYDSIVCNYFLDLFEEADVTMLIKKFKKHLKKDGILYITDFTMPIRTGIIEWSAKAGLKVLYWFFKRTTSLSNNQLPDIESVVLKQDFIKLHSADFFKGILRCSLYR", "soluble on expression in E. coli": "not soluble"}
{"sequence": "MIIKIGTDRFWVKASNIERWAEILKSLPKKIPCSSKKDIARDYLGYKVDESGRIVNADEVYGLFGAEKDKDSLTIVGCNFIKEIEGGYELTEGAIELVERFKHNEEWEKVLGSQLLKYSIRIRTIAYAMLNGGYLYFEKGYMENFAKAYITLNDKKFYVFSSKPDEMNINSLMKENQSKILGDFWRKELDIGDGEEIEFRGVNKDYPSLGSMSTYLKIPMLLFDYLGWIVESEDGRYVLDKHKIKEDAGIDVYESLVNEADVDDIEILHKLIKEYSDARGFFPIGIVGSILKKKIDSENSMAEEQWIDHYFVTGINKGKFIIKDHEQGQPRHGRGLLGKKDYQLIKLEIRD", "soluble on expression in E. coli": "not soluble"}
{"sequence": "MAHHHHHHMARIPPLVVCGPSGVGKGTLIKKVLSEFPSRFRFSISCTTRNKREKETNGVDYYFVDKDDFERKLKEGQFLEFDKYANNFYGTLKSEYDLAVGEGKICLFEMNINGVKQLKESKHIQDGIYIFVKPPSIDILLGRLKNRNTEKPEEINKRMQELTREMDEADKVGFNYFIVNDDLARTYAELREYLLGSYPQLRGG", "soluble on expression in E. coli": "soluble"}
{"sequence": "MKTFKLVGLSVIDDDMHRQDIPFIDGLIINKEDGQNRWLVEAYLDDDYEPMFVSLQRRPEFQLQVTITHTSNDPANMLVTVRSITKMNGHISVLMEGLMIPRRTHLAEVVLAGLVKKGLQGEALLQEFRQQMHERIDAKAPQERKR", "soluble on expression in E. coli": "not soluble"}
{"sequence": "MDTEPIQIDSDDSFDAGAPTSSHTMDRKSIIEKYQKLKEESKKLDDLAVEVRSLFMICKQMEECYTKRIDRIVATYGEIRYLHDGTILLLVTIHNITNQPMIDWVISINPTSIFPNSSSSCCQTINVGSLLPGIRKTFQCQLTCKDPPVLLQLSLLRTYQLGGIVKCFKVKLDPILVTAWNQAQRVERKNMETSFTSTIRLPNSLINLLSGSPDTVISVPQVFKSILNVPNVQEDHIVIKMSSAFVVGATGAVGSELVKLLAESTKFSKVVVLARRPVDGATGDKLIQKTVDFDKLEENAEDIQGVDVAFCALGTTRGKSGADGFYKVDHDYVMSAAKMAKENGVKQFVLVSSVGADASSRFLYPKTKGEVEKEIGELNFEKFVIMRPGLIEAKRPEFRIGEFLGKIVTAPLGLFSNRFSSSATAIAQAMINATQTEETGNQIWNNSKIVEESKKYTA", "soluble on expression in E. coli": "not soluble"}
{"sequence": "PHFLILNGPNVNRLGSREPEVFGRQTLTDIETDLFQFAEALHIQLTFFQSNHEGDLIDAIHEAEEQYSGIVLNPGALSHYSYAIRDAVSSISLPVVEVHLSNLYAREEFRHQSVIAPVAKGQIVGLGAEGYKLAVRYLLSQQG", "soluble on expression in E. coli": "soluble"}
{"sequence": "MGSDKIHHHHHHMGDAGGAGGNNMNIKQAKNEVKNTVKAYLSKDAHGEYVIPQIRQRPMLLIGPPGVGKTQIMEQIARECKIGLVAYTITHHTRQSAVGLPFIKEREYDGKSYSVTEYTMSEIIASVYEKMEATGLKEGILFIDEINCVSETLAPTMLQFLQCKTFGNQAVPKGWVIVAAGNPPEYNKSVRDFDMVTLDRVRYISIEADYQVWKEYARDVHIHDALLSYLELHPNNFYRVETDVDGMNFVTARGWEDLSSLLKVYEAGELAVTEEVIGEFIHHPDIAEDVYAYLEIYRKYNEDYGISDILSGNVKKSVYKRVFDADFDERITVVNLLLSGLTVVFSDVARERKMVQLWYEFLKEYRKSQRSTEEQHALYNSAVEQFSKNMEILKESSLILPKEYYIRQDVLKHIKGDFDTVMDDFTEESEKLSTMEDAAGEKLNHAFDFVEDVFSDDQEMLVFVTELTITPEISSFLAENECEKFDIYNEKLMVGSNRTRLLKELER", "soluble on expression in E. coli": "not soluble"}
{"sequence": "SASAGGEDCESPAPEADRPHQRPFLIGVSGGTASGKSTVCEKIMELLGQNEVEQRQRKVVILSQDRFYKVLTAEQKAKALKGQYNFDHPDAFDNDLMHRTLKNIVEGKTVEVPTYDFVTHSRLPETTVVYPADVVLFEGILVFYSQEIRDMFHLRLFVDTDSDVRLSRRDKEVCRCDHPTRSGQYGCHQPDRAAHPGHSEW", "soluble on expression in E. coli": "soluble"}
{"sequence": "SLKVKAINLYTYKEPFKSPISTPKVKLTHRESLFTEIVTYSGETYYGECNAFLTNWYDKETILTVVNRLRQWIPQVLHKDMTSFDSWLPYLNQMNDAPAARSMVVMAVYQMYNDLHDFEVQYGATVSGLTNSQIETLLETRPKRIKLKWSTSLIKDLETIRLLNFDCDIAIDANESLTKPSFLQLANVNTSDIIYIEEPFKILEDLNDIDMSIFPRIAIDEKALSIEKIQSIIQQYPIQVVVLKPFRLGGIDRMLNAMKILKEKNIRFVVGGMYEFGLSRYFTAMLAKEGSYPGDITPHGYYFSNDIVETSGILKGGMIYFTPPKVKRSLLNKV", "soluble on expression in E. coli": "soluble"}
{"sequence": "MKIQLIAVGTKMPKWVEEGFQEYRRRFPHDMPLELVEITAGKRGKNADIARILQKEGEAMLAAVPKGNRIVTLDIPGKRWDTEELAVQLESWKLDGRDVSILIGGPEGLAPACKAAADQSWSLSPLTLPHPLVRVVMAESLYRAWSITTNHPYHRELEHHHHHH", "soluble on expression in E. coli": "soluble"}
